# According to patent US20170226167A1:
# Where no end group is shown, it is not given here. [ ]: non-standard residue; d: D form. Met(O) = CS(=O)CC[C@H](N)C(=O)O; pS = N[C@@H](COP(=O)(O)O)C(=O)O
# B1: P140(MO) (peptide SEQ ID NO: 1 in which the serine at position 10 is phosphorylated and the methionine at position 4 is oxidized) (peptide)
# peptide: RIH[Met(O)]VYSKR[pS]GKPRGYAFIEY
# B2: P140 peptide (peptide consisting of SEQ ID NO: 1, in which serine at position 10 is phosphorylated) (peptide)
# peptide: RIHMVYSKR[pS]GKPRGYAFIEY
# Columns and labels:
# [1] = target: Recombinant bovine HSC70 (Stressgen) (bovine) (UniProt P19120); experiment: SPR (BIAcore 3000), bovine HSC70 immobilized, peptide at 25 µM, 1:1 Langmuir fit
# [2] = target: Recombinant bovine HSC70 (Stressgen) (bovine) (UniProt P19120); experiment: SPR (BIAcore 3000), bovine HSC70 immobilized, peptide at 1.56 µM, 1:1 Langmuir fit
# [3] = target: Recombinant bovine HSC70 (Stressgen) (bovine) (UniProt P19120); experiment: SPR (BIAcore 3000), bovine HSC70 immobilized, peptide at 12.5 µM, 1:1 Langmuir fit
# [4] = target: Recombinant bovine HSC70 (Stressgen) (bovine) (UniProt P19120); experiment: SPR (BIAcore 3000), bovine HSC70 immobilized, peptide at 3.12 µM, 1:1 Langmuir fit
# [5] = target: Recombinant bovine HSC70 (Stressgen) (bovine) (UniProt P19120); experiment: SPR (BIAcore 3000), bovine HSC70 immobilized, peptide at 6.25 µM, 1:1 Langmuir fit
# [6] = target: Recombinant bovine HSC70 (Stressgen) (bovine) (UniProt P19120); experiment: SPR (BIAcore 3000), bovine HSC70 immobilized, peptide as analyte, 1:1 Langmuir fit, 25 C
# Chain of Recombinant bovine HSC70 (Stressgen) (bovine) (P19120 whole entry): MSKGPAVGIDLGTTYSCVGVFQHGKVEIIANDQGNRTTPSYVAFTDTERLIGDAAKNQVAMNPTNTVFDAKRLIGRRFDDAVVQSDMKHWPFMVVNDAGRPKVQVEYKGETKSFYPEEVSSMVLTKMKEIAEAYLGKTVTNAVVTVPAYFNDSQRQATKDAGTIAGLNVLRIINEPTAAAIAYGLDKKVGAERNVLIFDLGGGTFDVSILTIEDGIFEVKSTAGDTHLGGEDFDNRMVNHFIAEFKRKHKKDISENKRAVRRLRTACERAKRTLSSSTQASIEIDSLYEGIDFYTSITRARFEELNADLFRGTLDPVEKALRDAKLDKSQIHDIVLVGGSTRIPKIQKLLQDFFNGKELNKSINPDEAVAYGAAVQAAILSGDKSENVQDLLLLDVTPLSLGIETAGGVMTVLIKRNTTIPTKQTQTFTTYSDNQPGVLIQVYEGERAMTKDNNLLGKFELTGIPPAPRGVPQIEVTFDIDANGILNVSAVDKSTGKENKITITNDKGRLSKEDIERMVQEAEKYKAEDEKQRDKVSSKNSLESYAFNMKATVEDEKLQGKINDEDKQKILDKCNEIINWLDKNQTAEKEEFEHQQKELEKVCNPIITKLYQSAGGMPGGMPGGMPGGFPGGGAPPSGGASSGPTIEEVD
Ka [1] [M⁻¹],Kd [1] [µM],Req (RU) [1] [RU],kobs [1] [s⁻¹],koff [1] [s⁻¹],Ka [2] [M⁻¹],Kd [2] [µM],Req (RU) [2] [RU],kobs [2] [s⁻¹],koff [2] [s⁻¹],Ka [3] [M⁻¹],Kd [3] [µM],Req (RU) [3] [RU],kobs [3] [s⁻¹],koff [3] [s⁻¹],Ka [4] [M⁻¹],Kd [4] [µM],Req (RU) [4] [RU],kobs [4] [s⁻¹],koff [4] [s⁻¹],also measured,Binder
524000,1.91,36.3,0.031,0.0022,524000,1.91,17.6,0.004,0.0022,524000,1.91,33.9,0.0166,0.0022,524000,1.91,24.2,0.0058,0.0022,Ka [5]: 524000 M⁻¹; Kd [5]: 1.91 µM; Req (RU) [5]: 29.9 RU; kobs [5]: 0.0094 s⁻¹; koff [5]: 0.0022 s⁻¹; kon [6]: 1150 M⁻¹ s⁻¹,B1
144000,6.94,65.2,0.0144,0.00312,144000,6.94,15.3,0.00382,0.00312,144000,6.94,53.6,0.00874,0.00312,144000,6.94,25.8,0.00452,0.00312,Ka [5]: 144000 M⁻¹; Kd [5]: 6.94 µM; Req (RU) [5]: 39.5 RU; kobs [5]: 0.00593 s⁻¹; koff [5]: 0.00312 s⁻¹; kon [6]: 450 M⁻¹ s⁻¹,B2
